Experiment [1] concerns the target EGFR on A-431 cells (EGFR-positive) (UniProt P00533). The experiment in a line: flow cytometry on A-431 cells, Alexa Fluor 488 anti-human IgG secondary antibody. Background: In flow cytometry, cells or beads pass a laser one at a time.
Experiment [2] addresses Recombinant human PD-1-Fc (R&D Systems), biotinylated (human) (UniProt Q15116). The experiment in a line: SPR Biacore T200, biotinylated human PD-1-Fc on Biotin CAPture chip, antibody as analyte, single cycle kinetics, 1:1 model. In general terms: Surface plasmon resonance follows binding to a sensor surface in real time, without labels.
For experiment [3], the target named is Biotinylated recombinant human FcRn (Immunitrack) (human) (UniProt P55899). Put plainly: SPR Biacore T200, biotinylated human FcRn on chip SA, association at pH 6.0, single cycle kinetics, 1:1 model; dissociated at pH 7.4.
Experiment [4] deals with EGFR on A-431 cells (EGFR-positive) (UniProt P00533). The experiment in a line: flow cytometry on A431 (EGFR+) cells, fraction of cells in the positive gate, x axis EGFR-BL-1H, Alexa Fluor 488 anti-human IgG secondary antibody.
The target in experiment [5] is HER2 on SKBR-3 cells (HER2-positive) (UniProt P04626). The experiment in a line: flow cytometry on SKBR3 (HER2+) cells, fraction of cells in the positive gate, x axis HER2-BL-1H, Alexa Fluor 488 anti-human IgG secondary antibody.
Experiment [6] concerns the target PD-1 on CD3-activated human T cells (PD-1-positive) (human) (UniProt Q15116). Put plainly: flow cytometry on CD3-activated human T cells (PD-1+), fraction of cells in the positive gate, x axis PD-1-BL-1H, Alexa Fluor 488 anti-human IgG secondary antibody.
The target of experiment [7] is Recombinant human HER2-Fc (R&D Systems), biotinylated (human) (UniProt P04626). The experiment in a line: SPR Biacore T200, biotinylated human HER2-Fc on Biotin CAPture chip, antibody as analyte, single cycle kinetics, 1:1 model.
The target is the same in experiment [8]. Put plainly: SPR (Biacore T200), single cycle kinetics, ligand biotinylated HER2-Fc on Biotin CAPture chip, HBS-EP+, 1:1 binding model.
In experiment [9] the target is EGFR on A-431 cells (EGFR-positive) (UniProt P00533). Put plainly: flow cytometry, primary antibody then Alexa Fluor 488 goat anti-human IgG (H+L), A-431 cells; histogram peak a little above 10^5, gate from a little above 10^4.
The target of experiment [10] is HER2 on SKBR-3 cells (HER2-positive) (UniProt P04626). Put plainly: flow cytometry, primary antibody then Alexa Fluor 488 goat anti-human IgG (H+L), SKBR-3 cells; histogram peak between 10^3 and 10^4, gate from a little below 10^3.
Experiment [11] deals with Recombinant human EGFR-Fc (R&D Systems), biotinylated (human) (UniProt P00533). Put plainly: SPR Biacore T200, biotinylated human EGFR-Fc on Biotin CAPture chip, antibody as analyte, single cycle kinetics, 1:1 model.
Experiment [12] concerns the target EGFR on A-431 cells (EGFR-positive) (UniProt P00533). The experiment in a line: flow cytometry, primary antibody then Alexa Fluor 488 goat anti-human IgG (H+L), A-431 cells; histogram peak at about 10^5, gate from a little above 10^4.

PD-1 on CD3-activated human T cells (PD-1-positive) (human), sequence (Q15116 25-288): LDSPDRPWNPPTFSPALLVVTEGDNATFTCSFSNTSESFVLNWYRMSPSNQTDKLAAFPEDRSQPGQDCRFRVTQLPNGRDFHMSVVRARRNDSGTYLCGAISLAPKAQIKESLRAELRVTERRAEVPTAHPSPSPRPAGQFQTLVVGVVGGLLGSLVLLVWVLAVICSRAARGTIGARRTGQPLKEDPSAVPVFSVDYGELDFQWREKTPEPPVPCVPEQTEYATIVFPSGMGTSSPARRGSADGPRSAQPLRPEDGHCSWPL
Recombinant human PD-1-Fc (R&D Systems), biotinylated (human), sequence (Q15116 25-167 limits assumed): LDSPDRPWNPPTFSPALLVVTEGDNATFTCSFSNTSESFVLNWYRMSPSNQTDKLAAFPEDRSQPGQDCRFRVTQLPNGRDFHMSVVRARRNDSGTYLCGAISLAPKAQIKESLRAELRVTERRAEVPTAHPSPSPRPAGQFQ

By Kd is commonly meant a measure of binding affinity in units of concentration. “Tri-specific antibody (Pembrolizumab Fab-Cetuximab-Trastuzumab Fab) (M-2)” returned a percent of cells with fluorescence in [1] of over 98%. The figures for the dissociation constant Kd in experiment [2] and in experiment [3] were 1.1 nM and 2.4 nM, respectively. In addition, the Positive cell (%) in experiment [4] was determined as 98.9%; in [5], 97.2%; in [6] it was 21.4%.
As for “DAR1 bi-specific antibody (Trastuzumab-Cetuximab Fab) (M-4) (bispecific antibody)”, the percent of cells with fluorescence in [1] is over 98%. In addition, the equilibrium dissociation constant (Kd) in experiment [7] is under 0.0019 nM; in experiment [8] it was under 0.0019 nM; in experiment [3], 2.4 nM. Also, the percent of cells in the positive gate in experiment [9] came out at 99.6%; in experiment [10], 97.9%.
As to “DAR1 bi-specific antibody (Cetuximab-Trastuzumab Fab) (M-3) (bispecific antibody)”, in [1], the percent of cells with fluorescence was over 98%. Further, the equilibrium dissociation constant (Kd) came out at 0.3 nM in experiment [11] and 2.6 nM in experiment [3]. Also, the percent of cells in the positive gate in [12] was determined as 98.2%; in experiment [10], 97.3%.
